Numbering of substitutions follows the chain as printed. Numbers in names are those of the source.
Key:
[1] = target: the molecule itself; experiment: cross-linking; in vivo site-specific cysteine crosslinking in E. coli cells with BMB or BMH (0.5 mM, 10 min, cold PBS), quenched with beta-mercaptoethanol; SDS-PAGE and immunoblot with anti-FtsA; dividing cells: ftsZ84(ts) strains 10 and 20 min after return to 30 °C, ftsQ1ts and zipA1ts at 30 °C, ftsA° strain at 30 or 42 °C, WM4952 at 37 °C, WM4953
[2] = target: the molecule itself; experiment: cross-linking; in vivo cysteine crosslinking in zipA1(ts) cells (WM7149) shifted to the nonpermissive 42 °C, compared with 30 °C; SDS-PAGE and anti-FtsA immunoblot
[3] = target: the molecule itself; experiment: cross-linking; in vivo cysteine crosslinking in ftsQ1(ts) cells (WM7148) shifted to the nonpermissive 42 °C, compared with 30 °C; SDS-PAGE and anti-FtsA immunoblot

B1: FtsA^M71A with Q155C (natural protein, E. coli, UniProt P0ABH0 1-420, looked up)
chain: MIKATDRKLVVGLEIGTAKVAALVGEVLPDGMVNIIGVGSCPSRGMDKGGVNDLESVVKCVQRAIDQAELAADCQISSVYLALSGKHISCQNEIGMVPISEEEVTQEDVENVVHTAKSVRVRDEHRVLHVIPQEYAIDYQEGIKNPVGLSGVRMCAKVHLITCHNDMAKNIVKAVERCGLKVDQLIFAGLASSYSVLTEDERELGVCVVDIGGGTMDIAVYTGGALRHTKVIPYAGNVVTSDIAYAFGTPPSDAEAIKVRHGCALGSIVGKDESVEVPSVGGRPPRSLQRQTLAEVIEPRYTELLNLVNEEILQLQEKLRQQGVKHHLAAGIVLTGGAAQIEGLAACAQRVFHTQVRIGAPLNITGLTDYAQEPYYSTAVGLLHYGKESHLNGEAEVEKRVTASVGSWIKRLNSWLRKEF
notes: FtsA, E. coli, M71A, measured by crosslinking at Q155C; M71A introduced into pWM7049 or pWM7239; source: E. coli, expressed from plasmid, in living cells
- DS filament crosslinking at Q155C, percent of WT levels [1]: ~35%

B2: FLAG-FtsA^Q155C (natural protein, E. coli, UniProt P0ABH0 1-420, looked up)
chain: B1 chain with A71M
notes: FtsA, E. coli, with the cysteine substitution Q155C; made by site-directed mutagenesis on pWM2785 (pDSW210-FLAG-FtsA); Native FtsA is also present in some strains; also called pDSW210-FLAG-FtsA^Q155C; source: E. coli, expressed from plasmid pDSW210 (IPTG), in living cells; not shown: FLAG, N-terminal, kept
- fold decrease of the crosslinked band's intensity at 42 °C against 30 °C [2]: 7.5 fold
- fold decrease of the crosslinked band's intensity at 42 °C against 30 °C [3]: 3 fold

Source: article PMC11323482, “Role of the antiparallel double-stranded filament form of FtsA in activating the Escherichia coli divisome” (mBio, 2024)
